Test results published in patent publication WO2011161970A1 (dated 2011).
Numbering of substitutions follows the chain as printed. One block for each binder: values may come before it.

Columns and labels:
[1] = target: T1, human PDGFRα-Fc fusion protein (PDGFRα extracellular region [1-514 amino acids] and mouse IgG2a constant … (human; mouse, UniProt P16234 24-514); assay: EIA, PDGFRα-Fc immobilised on plate, serially diluted COS-1 culture supernatant
T1 construct: not shown: mouse IgG2a constant region
T1 sequence (P16234 24-514 limits assumed): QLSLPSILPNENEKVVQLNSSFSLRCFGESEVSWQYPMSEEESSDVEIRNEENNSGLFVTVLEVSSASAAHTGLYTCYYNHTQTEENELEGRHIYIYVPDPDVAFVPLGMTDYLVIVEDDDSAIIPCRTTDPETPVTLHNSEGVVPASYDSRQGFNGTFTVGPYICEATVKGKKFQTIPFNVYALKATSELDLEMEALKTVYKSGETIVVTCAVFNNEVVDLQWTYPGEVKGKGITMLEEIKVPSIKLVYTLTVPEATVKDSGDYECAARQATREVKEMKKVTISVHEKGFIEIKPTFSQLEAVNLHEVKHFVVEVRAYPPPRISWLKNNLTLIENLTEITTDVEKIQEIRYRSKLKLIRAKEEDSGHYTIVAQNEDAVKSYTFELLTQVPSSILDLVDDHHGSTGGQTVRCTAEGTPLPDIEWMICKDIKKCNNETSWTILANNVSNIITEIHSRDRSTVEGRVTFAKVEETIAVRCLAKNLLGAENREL

[2] = target: T1, human PDGFRα-Fc fusion protein (PDGFRα …); assay: EIA, PDGFRα-Fc immobilised on plate, serially diluted COS-1 culture supernatant, anti-human IgG constant region HRP detection

binding result [1]: binds
B1: 24A1 antibody (mouse anti-human PDGFRα monoclonal antibody, clone number 24A1) (antibody, V domains shown)
VH: DVQLQESGPGLVKPSQSLSLTCTVTGYSITSDYAWNWIRQFPGNKLEWVGYISYSGSTSYNPSLKSRISITRDTSKNQFFLQLNSVTTEDTATYYCARRDYRYGYWYFDVWGAGTTVTVSS
VL: DIQMNQSPSSLSASLGDTITITCHASQNIHVWLTWYQQKPGNIPKLLIYKASNLHTGVPSRFSGSGSGTGFTLTISSLQPEDIATYYCQQGQSYPWTFGGGTKLEIKR
notes: no cleavage site is stated; also called monoclonal antibody 24A1; mouse anti-PDGFRα antibody (24A1 antibody)

binding result [2]: binds
B2: humanized anti-PDGFRα antibody (24A1) (antibody, human IgG1, kappa, V domains shown)
VH: DVQLQESGPGLVKPSQTLSLTCTVSGYSITSDYAWNWIRQPPGKGLEWVGYISYSGSTSYNPSLKSRISITRDTSKNQFSLKLSSVTAADTAVYYCARRDYRYGYWYFDVWGAGTTVTVSS
VL: B1 VL with L11V, L15V, T18R, I19V, N42K, I43A, G70D, I83F
notes: also called humanized 24A1 antibody; Hu PDGFRa (24A1)

binding result [1]: binds
B3: 21A1 antibody (mouse anti-human PDGFRα monoclonal antibody, clone number 21A1) (antibody, V domains shown)
VH: EVKLLESGGGLVQPGGSLKLSCAASGFDFSIFWMSWVRQAPGKGLEWIGEINPDSSTINYTPSLKDKFIISRDNAKNTLYLQMSKVRSEDTALYFCARQRFGPYWGQGTLVTVSA
VL: DIVMTQSHKFMSTSVGDRVSITCKASQDVSTAVAWYQQKPGQSPNLLIYSASYRYTGVPDRFTGSGSGTDFTFTISSVQAEDLAVYYCQQYYSTPYTFGGGTKLEIKR
notes: no cleavage site is stated; also called monoclonal antibody 21A1; hPDGFRα(21A1) MoAb
